Article PMC2018633 (Nucleic Acids Research, 2007)

Key:
P. abyssi aCBF5 protein = molecular target: T1, P. abyssi aCBF5 protein (Pyrococcus abyssi, UniProt Q9V1A5 1-334); experiment: cell-based or functional assay
T1 sequence (looked up): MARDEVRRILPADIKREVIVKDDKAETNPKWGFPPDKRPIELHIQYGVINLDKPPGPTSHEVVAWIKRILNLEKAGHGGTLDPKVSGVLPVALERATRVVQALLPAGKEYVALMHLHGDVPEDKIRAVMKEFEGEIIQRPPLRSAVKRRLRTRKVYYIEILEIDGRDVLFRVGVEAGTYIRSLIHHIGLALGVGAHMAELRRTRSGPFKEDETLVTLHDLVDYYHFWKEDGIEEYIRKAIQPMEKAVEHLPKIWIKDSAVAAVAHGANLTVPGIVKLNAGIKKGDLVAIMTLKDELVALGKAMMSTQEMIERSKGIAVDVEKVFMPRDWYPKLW

aCBF5 K53A variant = molecular target: T2, aCBF5 K53A variant (Pyrococcus abyssi, UniProt Q9V1A5 1-334, K53A); experiment: native gel or EMSA
T2 sequence (looked up): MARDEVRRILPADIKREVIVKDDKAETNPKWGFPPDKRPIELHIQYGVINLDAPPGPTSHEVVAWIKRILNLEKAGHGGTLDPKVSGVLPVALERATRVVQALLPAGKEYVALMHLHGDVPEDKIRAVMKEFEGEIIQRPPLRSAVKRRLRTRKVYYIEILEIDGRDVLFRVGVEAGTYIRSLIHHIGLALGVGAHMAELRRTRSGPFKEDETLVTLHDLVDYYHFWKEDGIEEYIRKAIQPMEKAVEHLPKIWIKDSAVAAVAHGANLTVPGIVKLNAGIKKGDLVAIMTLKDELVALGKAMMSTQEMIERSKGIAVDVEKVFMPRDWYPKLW

aCBF5 H77A variant = molecular target: T3, aCBF5 H77A variant (Pyrococcus abyssi, UniProt Q9V1A5 1-334, H77A); experiment: native gel or EMSA
T3 sequence (looked up): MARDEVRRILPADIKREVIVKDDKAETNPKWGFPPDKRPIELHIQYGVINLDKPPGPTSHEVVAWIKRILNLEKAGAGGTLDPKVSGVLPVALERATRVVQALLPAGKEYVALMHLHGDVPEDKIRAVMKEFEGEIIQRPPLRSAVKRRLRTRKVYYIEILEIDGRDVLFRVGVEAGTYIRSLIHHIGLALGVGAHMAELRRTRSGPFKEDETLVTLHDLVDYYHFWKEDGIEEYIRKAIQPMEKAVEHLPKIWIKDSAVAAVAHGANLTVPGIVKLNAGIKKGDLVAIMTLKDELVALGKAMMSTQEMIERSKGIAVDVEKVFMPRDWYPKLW

aCBF5 R202A variant = molecular target: T4, aCBF5 R202A variant (Pyrococcus abyssi, UniProt Q9V1A5 1-334, R202A); experiment: native gel or EMSA
T4 sequence (looked up): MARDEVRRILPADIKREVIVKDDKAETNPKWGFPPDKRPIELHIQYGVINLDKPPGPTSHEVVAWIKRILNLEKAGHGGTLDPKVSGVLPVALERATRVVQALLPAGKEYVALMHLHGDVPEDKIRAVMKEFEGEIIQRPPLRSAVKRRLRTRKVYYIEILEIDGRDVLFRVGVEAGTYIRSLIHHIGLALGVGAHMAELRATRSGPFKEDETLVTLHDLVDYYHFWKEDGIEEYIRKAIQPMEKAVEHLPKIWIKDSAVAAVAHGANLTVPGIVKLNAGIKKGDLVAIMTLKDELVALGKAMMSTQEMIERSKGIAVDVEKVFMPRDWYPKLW

level of aCBF5-tRNAAsp complexes by EMSA, with against without aNOP10 (P. abyssi aCBF5 protein): ~4 fold
binding result (aCBF5 K53A variant): binds
binding result (aCBF5 H77A variant): binds
binding result (aCBF5 R202A variant): binds
B1: P. abyssi aNOP10 protein (natural protein, Pyrococcus abyssi, UniProt Q9V0E3 1-60, looked up)
chain: MRFRIRKCPKCGRYTLKETCPVCGEKTKVAHPPRFSPEDPYGEYRRRLKRELLGIGRKEK
